The values that follow come from US20110166072A1.

The target of assay [1] is integrin αvβ3 (on rat osteoclast precursors) (rat). The assay can be described thus: cell-based or functional assay.
The target of assay [2] is platelet glycoprotein αIIbβ3 (on human platelets) (human) (UniProt P08514). The assay can be described thus: cell-based or functional assay.
Assay [3] addresses integrin αIIbβ3 (on CHO-αIIbβ3 cells) (UniProt P08514). The assay is described as follows: cell adhesion inhibition: CHO-αIIbβ3 cells on coated fibrinogen.

For orientation: pIC50 means −log10 of the IC50, conventionally taken in molar units. A low value points to a large IC50.

pIC50: −log10 of the molar value.

As to “PRGEMP (from UniProt P30403 408-475) (ligand)”, the Osteoclastogenesis IC50 in assay [1] worked out at 68.2 µM. Moreover, the Platelet aggregation IC50 in assay [2] came out at 4910 nM.
In assay [3], “AKGDWN (from UniProt P30403 408-475) (ligand; other documents disagree on this pair)” gave a pIC50 of 7.16.
As for “AKGDWN (from UniProt P30403 408-475) (ligand)”, the Osteoclastogenesis IC50 in assay [1] was determined as 78.4 µM. Also, the Platelet aggregation IC50 in assay [2] is 138 nM.
On to “PRPDDL (from UniProt P30403 408-475) (ligand)”, for which the Platelet aggregation IC50 in assay [2] was determined as 3530 nM.
As to “HSA-RD (human serum albumin-RD fusion protein) (from UniProt P30403 408-475) (other; other documents disagree on this pair)”, in assay [3], the pIC50 was 5.56.
With “PRPDDL (from UniProt P30403 408-475) (ligand; other documents disagree on this pair)”, the pIC50 in assay [3] was 4.87.
For “HSA-RD (human serum albumin-RD fusion protein) (from UniProt P30403 408-475)”, the Osteoclastogenesis IC50 in assay [1] is 0.00668 µM. This substance also had a Platelet aggregation IC50 in assay [2] of 438 nM.
